This assay deals with Human OSM (in-house, OSMN1-1) (human) (UniProt P13725). The experiment in a line: cell-based or functional assay.

This note sets out measurements from patent US20170145090A1.

Chain of Human OSM (in-house, OSMN1-1) (human) (P13725 26-221 limits assumed): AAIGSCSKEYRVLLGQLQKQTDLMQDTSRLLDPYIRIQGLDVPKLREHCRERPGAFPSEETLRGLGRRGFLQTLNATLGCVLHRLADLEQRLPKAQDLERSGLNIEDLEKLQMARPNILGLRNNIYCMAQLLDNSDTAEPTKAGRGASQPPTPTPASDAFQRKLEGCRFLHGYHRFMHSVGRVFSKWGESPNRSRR

In turn, MAB295 (R&D Systems) (antibody) gave a pSTAT3 inhibition EC50 (ng/ml), A375 cells, 5 ng/ml hOSM of 72.1 ng/ml.
